B1: T24 site (dsDNA)
DNA 1: TAGACAAACCACAACTCTT
DNA 2: AAGAGTTGTGGTTTGTCTA
B2: T26 site (dsDNA)
DNA 1: TGGTAGACCTTAGGGCTA
DNA 2: TAGCCCTAAGGTCTACCA

Experiments:
TALER9 (synthetic) = assay: cell_activity; conditions: for activity (mKate2/TagBFP): cognate 0.01
TALER10 (synthetic) = assay: cell_activity; conditions: for activity (mKate2/TagBFP): cognate 0.00
TALER5 (synthetic) = assay: cell_activity
TALER24 = biological target: T1, TALER24 (synthetic, UniProt P14727 SEQ:1-806); assay: cell_activity; HEK293, two sites flanking CMVmini; conditions: tags: EYFP-2A upstream, SV40 NLS
T1 chain: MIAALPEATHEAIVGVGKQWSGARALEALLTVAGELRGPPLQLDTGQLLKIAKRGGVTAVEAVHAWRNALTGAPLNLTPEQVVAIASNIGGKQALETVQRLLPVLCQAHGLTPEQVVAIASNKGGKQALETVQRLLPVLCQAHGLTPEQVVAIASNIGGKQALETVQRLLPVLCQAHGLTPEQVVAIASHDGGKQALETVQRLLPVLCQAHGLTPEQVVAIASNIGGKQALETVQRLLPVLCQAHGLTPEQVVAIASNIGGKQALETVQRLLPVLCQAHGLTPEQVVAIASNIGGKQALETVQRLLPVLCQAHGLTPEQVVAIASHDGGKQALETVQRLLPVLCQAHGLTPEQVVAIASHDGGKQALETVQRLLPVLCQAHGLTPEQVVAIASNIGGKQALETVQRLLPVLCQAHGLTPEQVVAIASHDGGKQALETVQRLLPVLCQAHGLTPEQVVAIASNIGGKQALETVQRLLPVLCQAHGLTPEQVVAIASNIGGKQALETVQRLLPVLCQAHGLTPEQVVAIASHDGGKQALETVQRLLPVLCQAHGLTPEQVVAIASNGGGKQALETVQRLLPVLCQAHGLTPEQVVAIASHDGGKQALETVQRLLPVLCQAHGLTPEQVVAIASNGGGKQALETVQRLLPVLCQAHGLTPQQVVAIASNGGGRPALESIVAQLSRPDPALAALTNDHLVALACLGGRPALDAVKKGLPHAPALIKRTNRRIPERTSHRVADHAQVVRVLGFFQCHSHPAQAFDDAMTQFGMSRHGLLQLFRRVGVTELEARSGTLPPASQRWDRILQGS

TALER26 = biological target: T2, TALER26 (synthetic, UniProt P14727 SEQ:263-1244); assay: cell_activity; HEK293, two sites flanking CMVmini; conditions: tags: EYFP-2A upstream, SV40 NLS
T2 chain: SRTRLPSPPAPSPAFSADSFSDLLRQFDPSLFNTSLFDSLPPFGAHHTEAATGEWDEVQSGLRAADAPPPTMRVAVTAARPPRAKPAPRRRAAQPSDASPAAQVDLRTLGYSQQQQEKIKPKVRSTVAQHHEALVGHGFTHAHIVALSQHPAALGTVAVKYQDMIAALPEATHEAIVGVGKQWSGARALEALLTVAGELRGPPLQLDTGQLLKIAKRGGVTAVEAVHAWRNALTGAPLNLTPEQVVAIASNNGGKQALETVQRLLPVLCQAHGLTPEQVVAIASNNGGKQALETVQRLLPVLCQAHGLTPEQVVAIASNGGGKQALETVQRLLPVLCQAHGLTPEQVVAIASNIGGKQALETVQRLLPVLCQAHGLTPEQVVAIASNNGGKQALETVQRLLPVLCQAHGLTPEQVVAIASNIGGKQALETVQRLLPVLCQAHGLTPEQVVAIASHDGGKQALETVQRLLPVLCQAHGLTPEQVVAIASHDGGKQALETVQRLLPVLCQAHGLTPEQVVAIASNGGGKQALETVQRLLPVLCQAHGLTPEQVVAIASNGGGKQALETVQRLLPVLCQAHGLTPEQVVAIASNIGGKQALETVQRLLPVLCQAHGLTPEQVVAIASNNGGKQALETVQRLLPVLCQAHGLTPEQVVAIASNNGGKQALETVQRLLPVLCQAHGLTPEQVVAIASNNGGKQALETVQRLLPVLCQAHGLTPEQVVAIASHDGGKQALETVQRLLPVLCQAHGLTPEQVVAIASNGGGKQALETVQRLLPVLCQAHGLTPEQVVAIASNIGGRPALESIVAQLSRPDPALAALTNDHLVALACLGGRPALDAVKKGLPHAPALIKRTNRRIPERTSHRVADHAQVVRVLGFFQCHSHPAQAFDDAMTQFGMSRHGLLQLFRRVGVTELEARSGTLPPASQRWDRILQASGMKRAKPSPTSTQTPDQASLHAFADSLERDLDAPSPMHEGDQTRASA

[1] = HEK293, two sites flanking CMVmini

Molecule	activity (mKate2/TagBFP) (TALER9 (synthetic))	activity (mKate2/TagBFP) (TALER10 (synthetic))	other results
TACCCCTCTCCGCTTCT (double strand) [T14 site]	4.42	1.46	–
TACCTCATCAGGAACATGTT (double strand) [T10 site]	2.54	–	binding signal (fold repression) (TALER10 (synthetic); [1]): 1310
TACGACTCACTATA (double strand) [T1 site]	5.14	2.51	–
TACTGAATAATCAACACT (double strand) [T5 site]	–	–	binding signal (fold repression) (TALER5 (synthetic); [1]): 17.9
TACTGAATAATCAACACTGAATTCTAGGCGTGTACGGTGGGAGGCCTATATAAGCAGAGCTCGTTTAGTGAACCGTCAGATCGCCTCGAGTACTGAATAATCAACACTTACTGAATAATCAACACTTACTGAATAATCAACACT (double strand) [T5-CMVmini-T5x3]	–	–	binding signal (fold repression) (TALER5 (synthetic); HEK293, three 3' sites (15.43 with one)): 281
TATAGAACCGATCCTCCCATT (double strand) [T9 site]	–	0.84	binding signal (fold repression) (TALER9 (synthetic); [1]): 636
TATTTCGACGCTCATTCT (double strand) [T12 site]	2.38	1.04	–
TCCCGGAAGCCGATGCT (double strand) [T13 site]	2.17	0.93	–
TCCGCCTCCCTCTC (double strand) [T29 site]	2.94	1.19	–
TGCCCTCGGCCATCAGAAGGATCTT (double strand) [T16 site]	3.97	1.66	–
TGTCGTCTTCTGCACTTAT (double strand) [T21 site]	2.95	1.06	–
TTTATTCCCTGACA (double strand) [T35 site]	2.15	1.03	–
B1	–	–	binding signal (TALER24): 10.9 fold repression
B2	–	–	binding signal (TALER26): 148 fold repression
